Experimental data from patent publication US20240052042A1 (Novartis, published 2024).

Assays:
[1] = molecular target: T1, human NPR1 on CHO-K1 cells in the presence of ANP (human, UniProt P01160 124-151); experiment: flow cytometry (FL2-H) on hNPR1 CHO-K1 cells with saturating ANP, IgG titrated; control parental CHO-K1 [Cont.), panel XX06]
T1 construct: also called hNPR1 CHO K1 + 100 nM ANP
T1 sequence: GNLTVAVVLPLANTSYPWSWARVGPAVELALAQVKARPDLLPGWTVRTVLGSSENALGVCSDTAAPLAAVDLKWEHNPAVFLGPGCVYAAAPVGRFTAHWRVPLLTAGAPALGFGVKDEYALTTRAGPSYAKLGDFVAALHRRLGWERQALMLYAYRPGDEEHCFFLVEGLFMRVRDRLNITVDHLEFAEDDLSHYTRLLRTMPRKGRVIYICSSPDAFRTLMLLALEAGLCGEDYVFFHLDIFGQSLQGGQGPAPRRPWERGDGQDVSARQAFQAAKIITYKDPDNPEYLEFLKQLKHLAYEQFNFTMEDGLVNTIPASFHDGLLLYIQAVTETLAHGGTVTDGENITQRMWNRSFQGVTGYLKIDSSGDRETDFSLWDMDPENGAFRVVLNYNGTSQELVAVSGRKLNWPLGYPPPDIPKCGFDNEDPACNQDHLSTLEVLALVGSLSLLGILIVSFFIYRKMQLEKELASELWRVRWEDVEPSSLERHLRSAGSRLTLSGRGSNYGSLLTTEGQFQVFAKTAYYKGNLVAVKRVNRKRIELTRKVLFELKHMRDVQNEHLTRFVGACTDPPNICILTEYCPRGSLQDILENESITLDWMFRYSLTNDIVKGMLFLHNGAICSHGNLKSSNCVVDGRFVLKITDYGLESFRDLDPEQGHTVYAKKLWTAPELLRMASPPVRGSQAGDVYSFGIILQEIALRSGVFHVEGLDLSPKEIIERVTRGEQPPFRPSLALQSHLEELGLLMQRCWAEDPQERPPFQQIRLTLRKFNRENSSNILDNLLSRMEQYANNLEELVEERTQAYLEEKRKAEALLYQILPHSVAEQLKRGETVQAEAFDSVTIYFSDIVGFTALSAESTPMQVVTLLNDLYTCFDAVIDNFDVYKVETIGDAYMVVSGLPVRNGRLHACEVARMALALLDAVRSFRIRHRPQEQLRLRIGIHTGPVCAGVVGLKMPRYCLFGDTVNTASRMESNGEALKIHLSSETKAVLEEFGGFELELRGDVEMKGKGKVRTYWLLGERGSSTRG
T1 sequence (peptide): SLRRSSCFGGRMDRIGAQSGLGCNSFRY

[2] = molecular target: T2, human NPR3 in the presence of ANP (human, UniProt P17342 27-481; P01160 124-151, limits assumed); experiment: ELISA, IgG titrated on coated antigen with ANP (250 fold molar excess), fluorescence [Cont.]
T2 construct: also called hNPR3 + 100 nM ANP
T2 sequence (looked up): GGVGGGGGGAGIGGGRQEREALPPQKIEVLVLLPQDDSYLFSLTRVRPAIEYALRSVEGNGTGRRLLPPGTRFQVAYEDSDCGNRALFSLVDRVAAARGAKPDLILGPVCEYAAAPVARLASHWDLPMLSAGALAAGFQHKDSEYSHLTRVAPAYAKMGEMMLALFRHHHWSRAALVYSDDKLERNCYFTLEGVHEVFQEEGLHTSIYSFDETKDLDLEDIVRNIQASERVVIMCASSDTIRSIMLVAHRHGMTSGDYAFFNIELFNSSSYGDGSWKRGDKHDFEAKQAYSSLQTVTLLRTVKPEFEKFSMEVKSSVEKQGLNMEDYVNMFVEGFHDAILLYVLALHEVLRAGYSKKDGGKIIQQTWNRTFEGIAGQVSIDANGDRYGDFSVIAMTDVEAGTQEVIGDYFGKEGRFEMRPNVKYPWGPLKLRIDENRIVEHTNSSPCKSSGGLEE
T2 sequence (peptide, looked up): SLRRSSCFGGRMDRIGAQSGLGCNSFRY

[3] = molecular target: T3, human NPR3 (counter target) (human, UniProt P17342 27-481, limits assumed); experiment: ELISA, IgG titrated on coated antigen, fluorescence [Cont.]
T3 construct: Pannings used hNPR3-hFc; also called hNPR3; hNPR3-hFc
T3 sequence (looked up): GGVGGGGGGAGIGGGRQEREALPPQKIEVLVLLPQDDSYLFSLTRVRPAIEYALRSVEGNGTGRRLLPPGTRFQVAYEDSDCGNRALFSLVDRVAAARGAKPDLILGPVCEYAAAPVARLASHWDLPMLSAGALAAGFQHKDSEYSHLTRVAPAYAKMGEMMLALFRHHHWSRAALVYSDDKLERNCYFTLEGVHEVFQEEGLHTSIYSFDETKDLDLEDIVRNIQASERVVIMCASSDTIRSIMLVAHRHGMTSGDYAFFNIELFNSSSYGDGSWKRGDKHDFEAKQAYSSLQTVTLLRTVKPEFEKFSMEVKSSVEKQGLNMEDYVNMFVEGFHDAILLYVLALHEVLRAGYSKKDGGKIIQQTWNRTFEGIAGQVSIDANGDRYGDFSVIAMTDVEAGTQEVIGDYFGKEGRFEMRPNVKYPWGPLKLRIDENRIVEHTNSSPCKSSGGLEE
Method: Furthermore, the clones were tested via ELISA for binding to the following antigens: human NPR1, constitutively active human NPR1 mutant (W74R), rat NPR1, human NPR3 (counter target), each in the absence and presence of ANP, and BSA. The clones were also analyzed by flow cytometry for binding to human NPR1 expressing CHO K1 cells in absence and presence of ANP (100 nM) and to parental CHO K1 cells.

hNPR1-ANP complex = molecular target: T4, hNPR1-ANP complex (human, UniProt P01160 124-151, limits assumed); experiment: FRET ANP competition assay, IgG titrated on hNPR1 with Cy5-labeled ANP; negative values mean more ANP signal [Cont.), panel XX06]
T4 construct: hNPR1 antigen in the presence of ANP; also called hNPR1 + 100 nM ANP
T4 sequence: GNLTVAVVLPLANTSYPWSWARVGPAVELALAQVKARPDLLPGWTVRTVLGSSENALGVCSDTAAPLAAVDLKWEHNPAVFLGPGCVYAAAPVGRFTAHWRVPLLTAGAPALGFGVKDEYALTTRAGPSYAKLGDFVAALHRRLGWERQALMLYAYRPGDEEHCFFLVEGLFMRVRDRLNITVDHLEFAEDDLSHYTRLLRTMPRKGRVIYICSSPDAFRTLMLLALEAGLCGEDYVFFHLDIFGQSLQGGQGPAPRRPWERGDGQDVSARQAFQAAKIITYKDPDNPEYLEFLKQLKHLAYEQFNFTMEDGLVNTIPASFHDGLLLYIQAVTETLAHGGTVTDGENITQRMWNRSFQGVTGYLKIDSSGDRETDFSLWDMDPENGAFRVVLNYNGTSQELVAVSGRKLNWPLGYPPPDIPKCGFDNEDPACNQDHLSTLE
T4 sequence (peptide): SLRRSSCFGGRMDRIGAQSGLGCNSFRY
Method: The same 31 IgGs were tested for ANP competition using a Fluorescence Resonance Energy Transfer (FRET)-based assay in which the NPR1-specific antibodies competed with ANP for binding to NPR1. In this FRET based assay (see FIG. 3), Eu-labeled Streptavidin (for measurement of IgGs) or Eu-labeled anti-hFc antibody (for measurement of FabCys) was used as an energy donor, while Cy5-labeled ANP was used as an acceptor (for all measurements). The resulting fluorescent signal was decreased by ANP-competitive antibodies. The assay was performed as follows: antibodies were mixed with NPR1 and incubated for 5 minutes at room temperature. After addition of the Eu-labeled donor and incubation for 30 minutes at room temperature, the Cy5-ANP solution was added. After a further 60-minute incubation, readout was performed using a TECAN Infinite M1000 Pro using an excitation wavelength of 317 nm and an emission wavelength of 665 nm. Percentage of ANP competition was calculated according to the following formulae: […]

- EC50 (read off the curve) [1]: ~2 nM
- binding result [2]: no binding (tested: 200 nM)
- binding result [3]: no binding (tested: 200 nM)
- EC50 (read off the curve) (hNPR1-ANP complex): ~0.2 nM
B1: XX06 (IgG format) (antibody, V domains shown)
VH: QVQLLESGGGLVQPGGSLRLSCAASGFTFSSYWMNWVRQAPGKGLEWVSAISSDGSYTYYADSVKGRFTISRDNSKNTLYLQMNSLRAEDTAVYYCARDRYSMIYSYGAGAFDYWGQGTLVTVSS
VL: DIQMTQSPSSLSASVGDRVTITCRASQGISSYLAWYQQKPGKAPKLLIYTASTLQSGVPSRFSGSGSGTDFTLTISSLQPEDFATYYCQQTWRKPRTFGQGTKVEIK
